The results in this text go back to patent publication US20110135573A1, “METALLOPROTEINASE 9 AND METALLOPROTEINASE 2 BINDING PROTEINS” (DYAX CORP., priority 2009, published 2011).

The target of this test is T1, Human MMP-9 catalytic domain (Homo sapiens, UniProt P14780).
T1 construct: Human MMP-9 catalytic domain (BIOMOL, SE-244); purchased BIOMOL SE-244
Put plainly: Biacore 3000 binding to antibody-coated CM5 chip. To be noted: 25° C. The protocol:
Experiments were performed at 25° C. with the help of a Biacore 3000 instrument. The MMP-9 binding protein (M0166F10) and the M0237-D02 antibody were coated to a CM5 chip either via standard amine coupling or using an anti-Fc antibody surface. Then either the active, human MMP-9 catalytic domain (BIOMOL, SE-244), the human pro-MMP-9 (R&D, 911-MP), the human TIMP-1 (R&D, 970-TM) or a h-MMP-9/h-TIMP-1 complex were flowed over the antibody surfaces, and binding was recorded.
(In general: In SPR one partner is held on a chip, and binding of the other changes the refractive index at the surface.)

T1 sequence (P14780 107-444 limits assumed): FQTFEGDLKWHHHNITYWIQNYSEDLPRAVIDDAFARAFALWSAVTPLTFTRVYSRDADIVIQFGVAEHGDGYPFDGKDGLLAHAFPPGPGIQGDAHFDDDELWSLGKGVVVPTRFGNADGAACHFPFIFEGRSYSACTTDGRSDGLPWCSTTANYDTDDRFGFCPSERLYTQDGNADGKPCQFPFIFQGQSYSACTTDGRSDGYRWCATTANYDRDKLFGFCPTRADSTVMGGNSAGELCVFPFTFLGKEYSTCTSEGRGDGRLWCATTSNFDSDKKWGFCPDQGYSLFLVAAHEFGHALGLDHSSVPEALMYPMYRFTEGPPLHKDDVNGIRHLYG

B1: M0237-D02: MMP-9/-2 dual reactive antibody inhibitor (parental); sFab and hIgG1 (antibody, V domains shown)
VH: EVQLLESGGGLVQPGGSLRLSCAASGFTFSQYPMWWVRQAPGKGLEWVSYIVPSGGRTYYADSVKGRFTISRDNSKNTLYLQMNSLRAEDTAVYYCAKDRAYGDYVGWNGFDYWGQGTLVTVSS
VL: DIQMTQSPATLSLSPGERATLSCRASQSISSFLAWYQQKPGQAPRLLIYDASYRATGIPARFSGSGSGTDFTLTISSLEPEDYAVYYCQQRGNWPITFGQGTRLEIK
As to B1, the “binding of Cat-huMMP-9” value is, setting by setting: (Direct capture (amine coupling)) “No”; (Fc capture (anti-Fc antibody surface)) “could be observed”; (Fc capture (anti-Fc antibody surface), listed as 539A-M0237D02) “Yes”.
